Kd data for two molecules are collected here from doi:10.1101/2022.07.20.500788.

Holding throughout (experiment): filter binding
One data set has as its target T1, AtAGO10+Hs-loop D795A (Arabidopsis, UniProt Q9XGW1 1-712+Q9UKV8:602-608+721-988, D795A;internal_change).
T1 sequence: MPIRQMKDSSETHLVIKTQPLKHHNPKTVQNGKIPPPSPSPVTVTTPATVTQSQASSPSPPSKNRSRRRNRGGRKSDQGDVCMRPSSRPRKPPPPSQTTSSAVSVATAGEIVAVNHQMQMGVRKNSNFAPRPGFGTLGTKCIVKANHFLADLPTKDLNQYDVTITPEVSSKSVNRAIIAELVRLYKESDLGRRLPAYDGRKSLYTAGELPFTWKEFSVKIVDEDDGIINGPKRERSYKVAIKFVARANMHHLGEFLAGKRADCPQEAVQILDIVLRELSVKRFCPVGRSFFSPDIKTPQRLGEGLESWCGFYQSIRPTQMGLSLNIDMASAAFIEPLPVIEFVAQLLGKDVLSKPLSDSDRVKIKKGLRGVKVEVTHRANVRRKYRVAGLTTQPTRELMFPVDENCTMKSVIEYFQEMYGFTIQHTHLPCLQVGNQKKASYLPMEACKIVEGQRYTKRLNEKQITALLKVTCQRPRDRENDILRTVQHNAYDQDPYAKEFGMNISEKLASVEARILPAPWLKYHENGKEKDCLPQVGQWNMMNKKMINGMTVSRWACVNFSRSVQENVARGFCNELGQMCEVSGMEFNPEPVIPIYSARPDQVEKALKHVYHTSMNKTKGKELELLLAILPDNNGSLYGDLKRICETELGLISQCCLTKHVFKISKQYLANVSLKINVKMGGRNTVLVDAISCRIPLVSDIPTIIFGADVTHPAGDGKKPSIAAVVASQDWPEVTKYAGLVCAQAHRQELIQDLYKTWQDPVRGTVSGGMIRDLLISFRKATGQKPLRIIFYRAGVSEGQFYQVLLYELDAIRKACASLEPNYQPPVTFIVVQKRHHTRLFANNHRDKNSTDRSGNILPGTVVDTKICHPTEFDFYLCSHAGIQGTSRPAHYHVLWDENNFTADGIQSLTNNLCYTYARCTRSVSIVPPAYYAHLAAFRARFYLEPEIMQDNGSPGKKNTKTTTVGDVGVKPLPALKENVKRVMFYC

In a further data set the target is HsAGO2 (human, UniProt Q9UKV8 1-859).
Another data set has as its target HsAGO2+At-loop (human, UniProt Q9UKV8 1-601+Q9XGW1:713-720+609-859, internal_change).
Data set [1] has as its target T2, AtAGO10 D795A (wild-type PIWI loop) (Arabidopsis, UniProt Q9XGW1 1-988, D795A).
T2 sequence: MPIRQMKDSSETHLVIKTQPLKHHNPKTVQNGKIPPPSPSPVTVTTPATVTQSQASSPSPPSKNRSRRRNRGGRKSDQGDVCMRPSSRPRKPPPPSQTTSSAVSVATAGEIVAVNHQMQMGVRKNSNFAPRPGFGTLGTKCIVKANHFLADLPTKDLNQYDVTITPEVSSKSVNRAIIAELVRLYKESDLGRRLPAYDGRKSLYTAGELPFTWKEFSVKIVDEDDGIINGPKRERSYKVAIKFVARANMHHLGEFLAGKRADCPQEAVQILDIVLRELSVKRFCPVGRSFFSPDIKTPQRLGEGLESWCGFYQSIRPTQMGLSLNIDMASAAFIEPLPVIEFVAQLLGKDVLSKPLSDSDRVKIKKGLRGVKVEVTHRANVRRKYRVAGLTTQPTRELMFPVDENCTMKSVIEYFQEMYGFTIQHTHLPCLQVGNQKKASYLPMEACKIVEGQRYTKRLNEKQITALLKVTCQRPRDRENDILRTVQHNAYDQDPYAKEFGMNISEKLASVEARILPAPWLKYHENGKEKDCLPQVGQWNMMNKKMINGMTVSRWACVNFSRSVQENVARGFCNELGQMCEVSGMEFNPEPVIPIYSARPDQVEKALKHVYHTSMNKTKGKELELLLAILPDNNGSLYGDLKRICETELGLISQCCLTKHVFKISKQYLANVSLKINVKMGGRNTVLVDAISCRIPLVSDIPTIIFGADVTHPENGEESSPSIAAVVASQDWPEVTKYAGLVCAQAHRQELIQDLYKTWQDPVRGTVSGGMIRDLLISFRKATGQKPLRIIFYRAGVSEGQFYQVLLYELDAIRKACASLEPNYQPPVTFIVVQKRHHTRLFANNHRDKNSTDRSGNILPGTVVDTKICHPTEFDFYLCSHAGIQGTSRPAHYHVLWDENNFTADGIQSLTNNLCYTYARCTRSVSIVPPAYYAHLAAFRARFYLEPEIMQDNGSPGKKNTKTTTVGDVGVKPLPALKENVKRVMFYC

B1: guide RNA / 2-8 target (mixed)
RNA 1: UGGAGUGUGACAAUGGUGUUU
RNA 2: AAAAAAAAAAAAAACACUCCAAA
On to B1, for which the Kd came out at 0.38 ± 0.03 nM in the data set with AtAGO10+Hs-loop D795A, 0.086 ± 0.005 nM in the data set with HsAGO2, 6.43 ± 0.24 nM in the data set with HsAGO2+At-loop and 1.33 ± 0.14 nM in data set [1].

B2: guide RNA / 2-21 target (mixed)
RNA 1: UGGAGUGUGACAAUGGUGUUU
RNA 2: AAACACCAUUGUCACACUCCAAA
With B2, the Kd with AtAGO10+Hs-loop D795A is 0.095 ± 0.012 nM; with HsAGO2, 0.01 ± 0.001 nM; with HsAGO2+At-loop, 0.005 ± 0.001 nM; in data set [1], 0.04 ± 0.007 nM.
